Laboratory results: patent US7078174B1, “Screening methods using SOCS box-containing peptides” (The Walter & Eliza Hall Institute of Medical Research, priority 1998, dated 2006)

B1: SSB-1: N-terminally FLAG-tagged SSB-1 protein transfected into 293T fibroblasts (protein)
chain: DYKDDDDKMGQKVTGGIKTVDMRDPTYRPLKQELQGLDYCKPTRLDLLLDMPPVSYDVQLLHSWNNNDRSLNVFVKEDDKLIFHRHPVAQSTDAIRGKVGYTRGLHVWQITWAMRQRGTHAVVGVATADAPLHSVGYTTLVGNNHESWGWDLGRNRLYHDGKNQPSKTYPAFLEPDETFIVPDSFLVALDMDDGTLSFIVDGQYMGVAFRGLKGKKLYPVVSAVWGHCEIRMRYLNGLDPEPLPLMDLCRRSVRLALGKERLGAIPALPLPASLKAYLLYQ
B2: full-length SOCS-1: N-terminally FLAG-tagged full-length mouse SOCS-1 stably expressed in M1 cells (protein)
chain: DYKDDDDKMVARNQVAADNAISPAAEPRRRSEPSSSSSSSSPAAPVRPRPCPAVPAPAPGDTHFRTFRSHSDYRRITRTSALLDACGFYWGPLSVHGAHERLRAEPVGTFLVRDSRQRNCFFALSVKMASGPTSIRVHFQAGRFHLDGSRETFDCLFELLEHYVAAPRRMLGAPLRQRRVRPLQELCRQRIVAAVGRENLARIPLNPVLRDYLSSFPFQI
B3: WSB-2: N-terminally FLAG-tagged WSB-2 protein transfected into 293T fibroblasts (protein)
chain: DYKDDDDKMEAGEEPLLLAELKPGRPHQFDWKSSCETWSVAFSPDGSWFAWSQGHCVVKLVPWPLEEQFIPKGFEAKSRSSKNDPKGRGSLKEKTLDCGQIVWGLAFSPWPSPPSRKLWARHHPQAPDVSCLILATGLNDGQIKIWEVQTGLLLLNLSGHQDVVRDLSFTPSGSLILVSASRDKTLRIWDLNKHGKQIQVLSGHLQWVYCCSISPDCSMLCSAAGEKSVFLWSMRSYTLIRKLEGHQSSVVSCDFSPDSALLVTASYDTSVIMWDPYTGERLRSLHHTQLEPTMDDSDVHMSSLRSVCFSPEGLYLATVADDRLLRIWALELKAPVAFAPMTNGLCCTFFPHGGIIATGTRDGHVQFWTAPRVLSSLKHLCRKALRSFLTTYQVLALPIPKKMKEFLTYRTF

Experiments:
elongins B and C = biological target: T1, elongins B and C (Mus musculus, UniProt P62869+P83940); test: Co-transfection of 293T cells with SOCS box proteins and elongins B and C, co-immunoprecipitation; type: binding; settings: anti-myc immunoprecipitation, anti-FLAG Western blot
T1 construct: expressed in transfected cells; host or cells: 293T human fibroblast cell line, vector pEF-BOS
Excerpt: The cDNAs encoding mouse SOCS-1, SOCS-3, WSB-1, SSB-1, ASB-1, have been described previously (1,8). Constructs in pEF-FLAG1 encoding these proteins, with or without the SOCS box, with an N-terminal FLAG epitope tag (DYKDDDDK) (SEQ ID NO:1) were generated by PCR essentially as described (8) (found at http://www.wehi.edu.au/willson vectors). DNA fragments encoding mouse elongins B and C were amplified using PCR from a 17-day embryo cDNA lambda library (Clontech ML5014t) and were expressed with N-terminal FLAG or myc (DQKLISEEDL) (SEQ ID NO:2) epitope tags, respectively, using the mammalian expression vector pEF-BOS.
The murine monocytic leukemic cell line, M1, and the 293T human fibroblast cell line were maintained and transfected as described (8).
(§1) Proteins were immunoprecipitated with anti-myc (9E10; WEHI) and protein A-Sepharose or anti-FLAG antibody conjugated to Sepharose (KM5-IC7; WEHI) and separated by sodium dodecyl sulphate-polyacrylamide gel electrophoresis (SDS-PAGE) (Biorad, Hercules, Calif.) under reducing conditions. Proteins were then electrophoretically transferred to PVDF-Plus membranes (Micron Separations Inc. WestBorough, Mass.) and Western blotted as described (8).

[1] = biological target: T2, endogenous elongins B and C (Mus musculus, UniProt P62869+P83940); test: Interaction of FLAG-tagged SOCS-1 with endogenous elongins in M1 cells (anti-FLAG resin, Western blot); type: binding, murine; settings: M1 cells stably expressing FLAG-tagged protein, anti-FLAG immunoprecipitation
T2 construct: endogenous in cells; host or cells: M1 murine monocytic leukemic cells
Method: Two liters of M1 cells stably expressing either full-length SOCS-1 or SOCS-1 lacking SOCS box (with N-terminal FLAG epitopes) were grown in DME containing 5% bovine calf serum, 10 μg/ml puromycin and 50 ng/ml murine IL-6. The cells were harvested and incubated in 20 ml of culture media containing 10 μM proteasome-specific inhibitor, N-acetyl-L-leucinyl-L-leucinyl-norleucinal (LLnL; Sigma, St. Louis, Mo.) for 30 min at 37° C. The cells were lysed in 14 ml of lysis buffer supplemented with protease inhibitors (Complete Cocktail tablets), 1 mM PMSF, 1 mM Na3VO4, 1 mM NaF and 10 μM LLnL. Total cell lysates were centrifuged at 15,000 rpm (SS34 rotor) for 15 min at 4° C. and the clarified supernatants incubated with 0.3 ml of M2 anti-FLAG antibody resin for 3 h at 4° C. Resin was then washed with 10 ml of lysis buffer and the bound proteins were eluted with 6×150 μl of 100 μg/m FLAG peptide in lysis buffer.
as §1

[2] = tested on: elongin B, elongin C, cullin 2, JAK1, gp130; test: Analysis of proteins interacting with SOCS-1 in unstimulated M1 cells (anti-FLAG affinity column, Western blot); type: binding, murine; settings: 10^9 unstimulated M1 cells, anti-FLAG affinity column eluate
Excerpt: The inventors passed lysates from 10^9 unstimulated M1 cells expressing FLAG-tagged SOCS-1 through an anti-FLAG affinity column which was then eluted with FLAG peptide. The eluate was then subjected to SDS-PAGE and the proteins were Western blotted. The blot was then probed with anti-FLAG antibodies to confirm the presence of SOCS-1 and with a range of antibodies against proteins thought to interact with SOCS-1 (FIG. 7). […] To determine whether proteins in this complex interact directly or indirectly with SOCS-1, or whether all the proteins can be found together in a single complex, or whether separate complexes are, for example, formed between SOCS-1, JAK-1 and gp130 on one hand and between SOCS-1, elongin B and C and cullin-2, is addressed in part by performing the primary immunoprecipitation using a different antibody.
Further, the nature of the complex is analyzed by repeating experiments using a mutant SOCS protein which lacks one or more domains. In the case described above, the inventors have performed an identical analysis using M1 cells expressing a FLAG-tagged mutant of SOCS-1 lacking the SOCS box. […] This type of experiment addresses whether interactions are direct or indirect. Further analysis involves approaches of the type described below.

T1 sequence (P83940 whole entry): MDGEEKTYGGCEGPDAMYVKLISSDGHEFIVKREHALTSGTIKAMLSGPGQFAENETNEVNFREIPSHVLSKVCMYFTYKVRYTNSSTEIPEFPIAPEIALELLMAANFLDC
T1 sequence (P62869 whole entry): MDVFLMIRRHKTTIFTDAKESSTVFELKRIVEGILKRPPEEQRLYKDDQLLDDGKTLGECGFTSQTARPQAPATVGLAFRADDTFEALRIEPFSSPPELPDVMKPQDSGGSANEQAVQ
T2 sequence (P83940 whole entry): as the sequence (P83940 whole entry) above
T2 sequence (P62869 whole entry): as the sequence (P62869 whole entry) above

Molecule	co-immunoprecipitation with elongin C (and elongin B) (elongins B and C)	association with endogenous elongins B and C [1]	complex formation with elongin B, elongin C, cullin 2, JAK1 and gp130 [2]
B1	found to co-immunoprecipitate along with elongin B with elongin C	–	–
B2	–	associated with bound elongins B and C	capable of forming a complex with elongin B and elongin C, cullin 2, as well as JAK1 and gp130
B3	found to co-immunoprecipitate along with elongin B with elongin C	–	–
